Measurements: patent US20240369485A1, “FLUORESCENT SENSOR FOR MONITORING CALCIUM DYNAMICS” (priority 2021, published 2024)

What was measured:
HeLa cells [1] = assay: Confocal imaging of R-CatchER with ER-tracker green; format: cell-based
Description: Confocal imaging of R-CatchER. HeLa cells were transfected with R-CatchER two days before fixing. Cells were fixed with 3.7% Thermo Scientific™ Pierce™ 16% Formaldehyde (w/v), methanol-free, and permeabilized with 0.1% Triton X-100. Cells were then stained with ER-Tracker green (Invitrogen) and with ProLong gold antifade mountant with DAPI (Invitrogen) for staining the nucleus. Confocal imaging then was performed using a Zeiss LSM 700 confocal laser scanning microscope (CLSM).

[2] = Quantum yield, extinction coefficient, and brightness determination; format: physicochemical; design: key to Brightness: extinction coefficient × quantum yield
Description: Quantum yield, extinction coefficient, and brightness determination. The quantum yield values of all the variants were determined by measuring the emitted fluorescence intensities and absorbance intensities of the chromophore at different protein concentrations. The wildtype was used as a reference to calculate quantum yield. Brightness was defined as a visual perception in which a source appears to emit or reflect a given amount of light, which was obtained by multiplying the extinction coefficient and the quantum yield.

[3] = system: primary hippocampal neurons; assay: Wide-field imaging in neuronal cultures; format: cell-based, mice; conditions: for decrease of fluorescence upon DHPG: 100 μM DHPG; for ER Ca^2+ transient ΔF/F: field stimulation 50 Hz for 1 s
Description: Wide-field imaging in neuronal cultures. Primary neuronal cultures were generated from embryonic day 18 or postnatal day 0-1 mice and plated onto poly-D-lysine (Sigma) coated coverslips as previously described. Neurons were maintained in neuronal feeding media (Neurobasal media, ThermoFisher Scientific) containing 1% GlutaMAX (ThermoFisher Scientific), 2% B-27 (ThermoFisher Scientific), 0.002 mg/mL Gentamicin (Sigma) with or without 10 μM 5 fluoro 2-deoxyuridine (Sigma-Aldrich) and fed every 3-4 days via half neuronal feeding media exchanges. Neurons were transfected with plasmid(s) through either lipofection or electroporation. For lipofection, at 11-12 days in vitro, cells were transfected using Lipofectamine 2000 Reagent (ThermoFisher Scientific) with a modified protocol. For electroporation, dissociated cells in suspension were electroporated in a cuvette using the 4D-Nucleofector system (Lonza) following the manufacturer's instructions prior to plating in FBS-containing Neurobasal media without B-27. Full media exchange was performed the following day with serum- and antibiotics-free Neurobasal media.
Neurons were imaged between 12-15 days in vitro, using an inverted (Olympus IX71) or an upright (Scientifica HyperScope) wide-field fluorescence microscope equipped with an epi-fluorescence turret (Olympus), a scientific CMOS camera (Hamamatsu ORCA-Flash4.0 LT), a mercury lamp (Olympus) or an LED light source (CoolLED pE-300ultra), and an oil- (Olympus Uapo/340 40×/1.35NA) or water-immersion objective (Nikon CFI75 LWD 16×W 0.8NA), respectively. R-CatchER or jGCaMP7s was viewed using a TRITC (Chroma 41002) or FITC (Chroma 41001) fluorescence filter cube, respectively. Images were obtained every 5 s or 33.3 ms using Micro-Manager (the Vale lab, UCSF) at room temperature.
The external solution contained 150 mM NaCl, 3 mM KCl, 2 mM MgCl2, 2 mM CaCl2), 10 mM HEPES, and 20 mM glucose at a pH of 7.35. mGluR agonists were applied in the bath. Field electrical stimulation was applied with a stimulus isolator (World Precision Instruments A360) via an imaging chamber with two platinum wires (Warner Instruments RC-21BRFS). Trains (2 ms to 2 s at 50 HZ) of pulses (10 mA for 2 ms) were controlled by pClamp 10 software and Digidata 1440A data acquisition system (Molecular Devices). Imaging data were processed and analyzed using in-house and NeuroMatic (Jason Rothman) macros in Igor Pro 8 (WaveMetrics).

C2C12 cells = assay: HILO imaging of ER Ca^2+ dynamics in C2C12 cells; format: cell-based; conditions: ER Ca^2+ release
Description: (§1) Cell culture and transfection. C2C12, HEK293 and HeLa cells were cultured and maintained in Dulbecco's modified Eagle's medium (DMEM) supplemented with 10% fetal bovine serum (FBS) and high glucose (4.5 g/L) at 37° C. R-CatchER, G-CatchER2, G-CEPIA1er, R-CEPIA1er or R-CatchER with GFP-CaSR (wt and mutations) were transfected into cells using Lipofectamine 3000 (Life Technologies), following the manufacturer's instructions. Seed cells onto sterilized 22 mm×40 mm glass microscope slides in 6 cm dishes until about 70% confluency, the day of transfection. The next day, 2 μg of plasmid were mixed with transfection reagent in the reduced serum media Opti-MEM for 4-6 h at 37° C. The media was then replaced with 3 mL of fresh DMEM and incubated at 37° C. for 48 h.
HILO imaging of R-CatchER, G-CatchER2, R-CEPIA1er, and G-CEPIA1er. […] A quad-band filter set (TRF89901v2, Chroma) was used for filtering out the fluorescence background. Fluorescence images of samples were recorded at 1 Hz as the concentration of ER Ca^2+ was perturbed by perfusion of 3 μM Thapsigargin, 0.5 mM 4-cmc, 1 mM 4-cmc, 100 μM ATP, or 100 μM histamine.

ER Ca^2+ = assay: Quantitative basal/resting ER Ca^2+ measurement using R-CatchER; format: cell-based
HeLa cells [4] = assay: In situ Ca^2+ binding affinity in HeLa cells with stepwise Ca^2+ concentrations; format: cell-based
Description: as §1

B1: R-CatchER: red genetically encoded Ca^2+ indicator, mApple A145E/K198D/R216D, SEQ ID NO: 12 (protein)
chain: EENNMAIIKEFMRFKVHMEGSVNGHEFEIEGEGEGRPYEAFQTAKLKVTKGGPLPFAWDILSPQFMYGSKVYIKHPADIPDYFKLSFPEGFRWERVMNFEDGGIIHVNQDSSLQDGVFIYKVKLRGTNFPSDGPVMQKKTMGWEESEERMYPEDGALKSEIKKRLKLKDGGHYAAEVKTTYKAKKPVQLPGAYIVDIDLDIVSHNEDYTIVEQYEDAEGRHSTGGMDELYK
Pearson's Coefficient of colocalisation with ER-tracker green (HeLa cells [1]): 0.83 | Brightness ([2]; Apo): 0.13 ± 0.02 | Extinction coefficient ([2]; Apo): 44000 M⁻¹ cm⁻¹ | Fluorescence quantum yield ([2]; Apo): 0.30 ± 0.02 | Brightness ([2]; Holo): 0.30 ± 0.03 | Extinction coefficient ([2]; Holo): 60000 M⁻¹ cm⁻¹ | Fluorescence quantum yield ([2]; Holo): 0.50 ± 0.03 | ε (holo) (×10^4) (M^−1 cm^−1) ([2]; Holo): 6 ×10^4 M^−1 cm^−1 | ε (apo) (×10^4) (M^−1 cm^−1) ([2]; apo): 4 ×10^4 M^−1 cm^−1 | Φ (apo) ([2]; apo, quantum yield): 0.30 | Φ (holo) ([2]; holo, quantum yield): 0.50 | decrease of fluorescence upon DHPG ([3]; primary, first value (dendrites by printed order)): 0.13±0.02 | decrease of fluorescence upon DHPG ([3]; primary, second value (branchpoints by printed order)): 0.08±0.01 | decrease of fluorescence upon DHPG ([3]; secondary, first value (dendrites by printed order)): 0.12±0.03 | decrease of fluorescence upon DHPG ([3]; secondary, second value (branchpoints by printed order)): 0.07±0.01 | ER Ca^2+ transient ΔF/F ([3]; branchpoints): 0.077±0.022 | ER Ca^2+ transient ΔF/F ([3]; primary dendrites): 0.083±0.039 | ER Ca^2+ transient ΔF/F ([3]; secondary dendrites): 0.036±0.017 | ER Ca^2+ transient ΔF/F ([3]; soma): 0.173±0.048 | fluorescence decrease ΔF/F (C2C12 cells; 0.5 mM 4-cmc): 0.36±0.01 | fluorescence decrease ΔF/F (C2C12 cells; 1 mM 4-cmc): 0.47±0.02 | Basal [Ca^2+]ER (ER Ca^2+; 6-23 cells, 0.5 mM Ca^2+): 735.0 ± 66.7 µM | Basal [Ca^2+]ER (ER Ca^2+; CaSR L173P, 1.8 mM Ca^2+): 893.6 ± 67.6 µM | Basal [Ca^2+]ER (ER Ca^2+; CaSR P221L, 1.8 mM Ca^2+): 477.7 ± 49.4 µM | Basal [Ca^2+]ER (ER Ca^2+; CaSR P221Q, 1.8 mM Ca^2+): 674.6 ± 50.2 µM | Basal [Ca^2+]ER (ER Ca^2+; CaSR S820F, 1.8 mM Ca^2+): 406.1 ± 41.4 µM | Basal [Ca^2+]ER (ER Ca^2+; GFP-CaSR, 0.5 mM Ca^2+): 487.1 ± 48.2 µM | resting ER Ca^2+ concentration (ER Ca^2+; HEK293 cells): 0.68 ± 0.22 mM | resting ER Ca^2+ concentration (ER Ca^2+; HeLa cells): 0.59 ± 0.16 mM | Basal [Ca^2+]ER (ER Ca^2+; TT cells, 0.5 mM Ca^2+): 539.0 ± 65.9 µM | Kd (HeLa cells [4]): 310 ± 50 µM
